Results: patent publication USRE46170E1, “Insulin derivatives” (Novo Nordisk A/S, priority 2005, dated 2016)
Blank lines part the entries; values can stand above or below the substance they belong to.

Columns and labels:
human insulin receptor = human insulin receptor (Homo sapiens, UniProt P06213); assay: Insulin receptor binding, SPA microtiterplate antibody capture assay; settings: purified recombinant human insulin receptor - exon 11; A14 Tyr[125I]-human insulin tracer; 16 hours incubation
Description: SPA-PVT antibody-binding beads, anti-mouse reagent (Amersham Biosciences, Cat No. PRNQ0017) were mixed with 25 ml of binding buffer (100 mM HEPES pH 7.8; 100 mM sodium chloride, 10 mM MgSO4, 0.025% Tween-20). […] A total of 100 μl was then added and a dilution series is made from appropriate samples. To the dilution series was then added 100 μl of reagent mix and the samples were incubated for 16 hours while gently shaken. The phases were the then separated by centrifugation for 1 min and the plates counted in a Topcounter. The binding data were fitted using the nonlinear regression algorithm in the GraphPad Prism 2.01 (GraphPad Software, San Diego, Calif.).

[1] = Hydrophobicity (hydrophobic index) relative to human insulin by isocratic RP-HPLC; type: physicochemical; settings: LiChrosorb RP18 column, isocratic elution at 40° C., sodium phosphate buffer pH 7.3/acetonitrile
Description: The elution was monitored by following the UV absorption of the eluate at 214 nm. Void time, t0, was found by injecting 0.1 mM sodium nitrate.

Sequence of human insulin receptor (P06213 28-746 isoform P06213-2 limits assumed): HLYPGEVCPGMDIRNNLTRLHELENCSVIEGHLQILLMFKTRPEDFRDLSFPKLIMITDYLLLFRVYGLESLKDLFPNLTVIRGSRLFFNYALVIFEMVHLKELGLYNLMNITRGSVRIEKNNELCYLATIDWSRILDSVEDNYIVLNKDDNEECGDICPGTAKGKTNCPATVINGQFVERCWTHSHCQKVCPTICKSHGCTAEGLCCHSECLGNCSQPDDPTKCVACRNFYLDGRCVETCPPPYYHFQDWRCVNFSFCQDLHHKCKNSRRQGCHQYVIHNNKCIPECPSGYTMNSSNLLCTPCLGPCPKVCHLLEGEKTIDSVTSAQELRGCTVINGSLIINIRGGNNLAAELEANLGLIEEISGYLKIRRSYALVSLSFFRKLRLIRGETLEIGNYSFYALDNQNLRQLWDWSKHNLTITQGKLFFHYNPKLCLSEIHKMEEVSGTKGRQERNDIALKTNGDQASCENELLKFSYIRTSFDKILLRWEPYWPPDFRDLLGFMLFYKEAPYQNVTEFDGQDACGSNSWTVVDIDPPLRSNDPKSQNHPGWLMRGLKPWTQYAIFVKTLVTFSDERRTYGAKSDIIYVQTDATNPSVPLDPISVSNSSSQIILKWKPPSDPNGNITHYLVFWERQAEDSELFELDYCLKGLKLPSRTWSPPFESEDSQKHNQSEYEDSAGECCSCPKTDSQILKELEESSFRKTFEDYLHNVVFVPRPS
Sequence of human insulin receptor (P06213 763-1382 partner limits assumed): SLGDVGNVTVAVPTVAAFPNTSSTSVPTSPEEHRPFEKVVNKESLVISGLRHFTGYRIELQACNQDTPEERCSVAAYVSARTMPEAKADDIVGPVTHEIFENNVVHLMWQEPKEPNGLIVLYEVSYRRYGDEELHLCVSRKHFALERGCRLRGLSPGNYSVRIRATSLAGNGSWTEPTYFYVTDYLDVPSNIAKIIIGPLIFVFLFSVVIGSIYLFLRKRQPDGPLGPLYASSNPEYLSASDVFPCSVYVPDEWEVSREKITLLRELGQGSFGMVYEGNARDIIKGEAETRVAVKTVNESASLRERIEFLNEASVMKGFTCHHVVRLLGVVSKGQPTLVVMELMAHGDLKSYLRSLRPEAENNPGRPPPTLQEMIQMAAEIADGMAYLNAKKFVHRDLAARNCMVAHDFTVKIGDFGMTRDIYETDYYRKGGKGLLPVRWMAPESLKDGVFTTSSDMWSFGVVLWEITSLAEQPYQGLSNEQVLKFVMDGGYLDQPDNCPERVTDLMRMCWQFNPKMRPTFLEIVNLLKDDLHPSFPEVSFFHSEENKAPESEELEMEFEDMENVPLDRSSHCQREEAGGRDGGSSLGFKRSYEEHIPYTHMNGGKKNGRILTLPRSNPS

Substance: N^εB29—[N—HOOC(CH2)14CO)—N-(carboxyethyl)-CH2-para-C6H4CO] desB30 human insulin [Example 1]
Receptor binding (% of human insulin) (human insulin receptor): 18 % of human insulin

Substance: N^εB29-(3-Carboxy-5-hexadecandioylaminobenzoyl) des(B30)insulin [Example 9]
k′rel [1]: 1.7
Receptor binding (% of human insulin) (human insulin receptor): 12 % of human insulin

Substance: N^εB29-(3-Carboxy-5-octadecandioylaminobenzoyl) des(B30) human insulin [Example 10]
k′rel [1]: 2.97
Receptor binding (% of human insulin) (human insulin receptor): 19 % of human insulin

Receptor binding (% of human insulin) (human insulin receptor): 17 % of human insulin
Substance: N^εB29—[N—(HOOC(CH2)14CO)—N-(carboxyethyl)-para-C6H4CO] desB30 human insulin [Example 8]
k′rel [1]: 1.08

Substance: N^εB29-{4-Carboxy-4-[10-(4-carboxy-phenoxy)-decanoylamino]-butyryl}desB30 human insulin [Example 14]
k′rel [1]: 0.388
Receptor binding (% of human insulin) (human insulin receptor): 46 % of human insulin

Receptor binding (% of human insulin) (human insulin receptor): 15 % of human insulin
Substance: N^εB29—N—(HOOC(CH2)16CO)—N(carboxyethyl)-CH2-para-C6H4CO] desB30 human insulin [Example 3]
k′rel [1]: 2.03

Substance: N^εB29-10-(4-Carboxyphenoxy)decanoyl beta-Asp desB30 insulin [Example 25]
k′rel [1]: 0.348
Receptor binding (% of human insulin) (human insulin receptor): 42 % of human insulin

Substance: N^εB29-11-(4-Carboxy-phenoxy) undecanoyl γ-L-glutamyl desB30 insulin [Example 26]
k′rel [1]: 0.482
Receptor binding (% of human insulin) (human insulin receptor): 55 % of human insulin

Substance: N^εB29-4-{[(2-Carboxyethyl)-(15-carboxypentadecanoyl)amino]methyl}benzoyl)-γ-L-glutamyl desB30 human insulin [Example 20]
k′rel [1]: 0.399

Substance: N^εB29-[(5-{[(2-Carboxyethyl)-(15-carboxypentadecanoyl)amino]methyl}furan-2-carbonyl)desB30 human insulin [Example 5]
k′rel [1]: 1.19
Receptor binding (% of human insulin) (human insulin receptor): 13 % of human insulin

Substance: N^εB29{3-[(3,5-Bis-carboxymethoxy-benzyl)-(15-carboxypentadecanoyl)amino]-propionyl desB30 human insulin [Example 16]
k′rel [1]: 0.45

Substance: N^εB29—N—(HOOC(CH2)15CO)—N-(carboxyethyl)-CH2-para-C6H4CO] desB30 human insulin [Example 4]
k′rel [1]: 1.23

Substance: N^εB29-(3-Carboxy-5-(14-carboxytetradecyloxy)benzoyl) desB30 human insulin [Example 13]
k′rel [1]: 1.175

Substance: N^εB29-10-(4-carboxyphenylsulfanyl)decanoyl-γ-L-glutamyl desB30 human insulin [Example 23]
k′rel [1]: 0.475
Receptor binding (% of human insulin) (human insulin receptor): 101 % of human insulin

Substance: N^εB29—[N—HOOC(CH2)14CO)—N-(carboxethyl)-CH2-ortho C6H4CO] desB30 human insulin [Example 7]
k′rel [1]: 0.905
Receptor binding (% of human insulin) (human insulin receptor): 11 % of human insulin

Substance: N^εB29-(3-carboxy-4-hexdecandioylaminobenzoyl) desB30 human insulin [Example 22]
k′rel [1]: 1.075

Substance: N^εB29-{4-[2-(4-carboxymethylphenyl)ethyl]phenyl}acetyl-γ-L-glutamyl desB30 human insulin [Example 21]
k′rel [1]: 0.291

Substance: N^εB29-ω-carboxypentadecanoyl-γ-L-glutamyl 4-aminomethyl-benzoyl) desB30 human insulin [Example 11]
k′rel [1]: 1.12
Receptor binding (% of human insulin) (human insulin receptor): 14 % of human insulin

Substance: N^εB29-[3-Carboxy-5-(octadecandioyl-N-carboxyethylglycin)aminobenzoyl] desB30 human insulin [Example 15]
k′rel [1]: 0.662

Receptor binding (% of human insulin) (human insulin receptor): 28 % of human insulin
Substance: N^εB29—[N—(HOOC(CH2)13CO)—N-(carboxyethyl)-CH2-para-C6H4CO] desB30 human insulin [Example 2]
k′rel [1]: 0.81

Substance: N^εB29-ω-carboxypentadecanoyl-(4-aminomethylbenzoyl)-γ-L-glutamyl desB30 human insulin [Example 18]
k′rel [1]: 1.18

Substance: N^εB29-(3-Carboxy-4-(14-carboxytetradecyloxy)benzoyl) desB30 human insulin [Example 12]
k′rel [1]: 1.51
